Measured values: US20140011747A1 (WISCONSIN ALUMNI RESEARCH FOUNDATION, published 2014)
Values belong to the binder of their own block, whether it stands above or below them. Ends that are not written are not given here.

How the values were obtained:
[1] = biological target: T1, epidermal growth factor receptor (EGFR), endogenous in human cell lines (human, UniProt P00533 25-1210); experiment: co-immunoprecipitation from lysates of MCF10A and BT474 cells, western blot
T1 construct: whole, on cells; Detected on western blots of lysate precipitates; also called ErbB-1; HER1
Protocol: (§1) Cells were washed once with washing buffer (50 mM Hepes, 50 mM NaCl and 10 mM EDTA, pH 7.4) and lysed for 20 min on ice in 1% Triton X-100 containing a 1:1000 dilution of protease inhibitor mixture set III (Calbiochem) in washing buffer. Cell debris was removed by centrifugation at 20,000 g for 15 min at 4° C. […] Visualization of immune-reactive bands was performed using ECF reagent (GE Healthcare) and scanned on a Typhoon Trio Variable Mode Imager (GE-Healthcare) in blue fluorescence.

[2] = biological target: T2, β4^R1733A mutant of the β4 cytoplasmic domain (binding construct) (human, UniProt P16144-2 1677-1752); experiment: binding of β4 cytoplasmic domain mutants to syndecan
T2 construct: not shown: 6×His tag and leader of the pTRC-His A vector
T2 sequence (looked up): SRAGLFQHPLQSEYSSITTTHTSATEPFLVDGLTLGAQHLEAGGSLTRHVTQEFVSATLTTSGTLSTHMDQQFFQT

[3] = biological target: T1, epidermal growth factor receptor …; experiment: cell-based or functional assay
[4] = biological target: T1, epidermal growth factor receptor …; experiment: co-immunoprecipitation of mouse syndecan chimeras from HaCat cells, western blot
Protocol: (FIG. 6A) Mouse syndecan chimeras in which their ectodomains are switched are expressed in HaCat cells, then immunoprecipitated with antibodies specific for the mouse syndecan ectodomains. […] HER2 or EGFR are immunoprecipitated from the lysates directly for comparison.
as §1

binding result [1]: no binding
B1: syndecan-1 (Sdc1), human, endogenous in human cell lines (receptor, UniProt P18827 23-310, looked up)
chain: QIVATNLPPEDQDGSGDDSDNFSGSGAGALQDITLSQQTPSTWKDTQLLTAIPTSPEPTGLEATAASTSTLPAGEGPKEGEAVVLPEVEPGLTAREQEATPRPRETTQLPTTHLASTTTATTAQEPATSHPHRDMQPGHHETSTPAGPSQADLHTPHTEDGGPSATERAAEDGASSQLPAAEGSGEQDFTFETSGENTAVVAVEPDRRNQSPVDQGATGASQGLLDRKEVLGGVIAGGLVGLIFAVCLVGFMLYRMKKKDEGSYSLEEPKQANGGAYQKPTKQEEFYA
notes: whole, on cells; Used as the comparison for Sdc4 in co-immunoprecipitation

binding result [2]: no binding
B2: GST-S1CD, Sdc1 cytoplasmic domain fused to GST (other)
chain: {GST}-RMKKKDEGSYSLEEPKQANGGAYQKPTKQEEFYA
notes: The result sentences say only Sdc1; not shown: glutathione S-transferase (GST) fusion partner

binding result [4]: no binding
B3: mouse syndecan chimera: mSdc4 with its ectodomain swapped for that of Sdc1 (receptor, UniProt P18828 23-255, looked up)
chain: QIVAVNVPPEDQDGSGDDSDNFSGSGTGALPDTLSRQTPSTWKDVWLLTATPTAPEPTSSNTETAFTSVLPAGEKPEEGEPVLHVEAEPGFTARDKEKEVTTRPRETVQLPITQRASTVRVTTAQAAVTSHPHGGMQPGLHETSAPTAPGQPDHQPPRVEGGGTSVIKEVVEDGTANQLPAGEGSGEQDFTFETSGENTAVAAVEPGLRNQPPVDEGATGASQSLLDRKEVLGVLAALIVGGVVGILFAVFLILLLVYRMKKKDEGSYDLGKKPIYKKAPTNEFYA
notes: extracellular domain;domain: transmembrane and cytoplasmic domains; Expressed in HaCat cells; also called Sdc4 displaying the Sdc1 ectodomain

The next lines start with the binder.

Binder: NHIPERAGSGSQVPTEPKKLEENEVIPKRISPVEESEDV [SSTNEGFR synthetic peptide truncated of amino acids 126-131]
activity against EGF-stimulated cell migration, relative to SSTNEGFR [3]: ≥ 100 fold reduction

Binder: NHIPERAGSGSQAAAAAAAAAANEVIPKRISPVEESEDVSNKVSM [SSTNEGFR synthetic peptide with amino acids 99-108 mutated to alanine]
activity against EGF-stimulated cell migration, relative to SSTNEGFR [3]: 10 fold reduction

Binder: NHIPERAGSGSQVPTEPKKLEENEVIPKRISPVEESEDVSNKVSM [SSTNEGFR, synthetic peptide of amino acids 87-131 of the human Sdc4 ectodomain]
IC50, EGF-stimulated migration of MCF10A cells, scratch wound closure [3]: 100 to 300 nM

B4: GST-S4ED, recombinant Sdc4 ectodomain fused to GST (other, UniProt P31431 19-145, looked up, not shown: a dimerising Fc or GST)
chain: ESIRETEVIDPQDLLEGRYFSGALPDDEDVVGPGQESDDFELSGSGDLDDLEDSMIGPEVVHPLVPLDNHIPERAGSGSQVPTEPKKLEENEVIPKRISPVEESEDVSNKVSMSSTVQGSNIFERTE
IC50, EGF-stimulated chemotaxis of MCF10A cells or HaCat keratinocytes [3]: 100 to 300 nM
